Reference: publication PMC3025356, “Mechanism of the Ca^2+-Dependent Interaction between S100A4 and Tail Fragments of Nonmuscle Myosin Heavy Chain IIA” (Journal of Molecular Biology, 2011)

Tests used:
[1] = tested on: M200 filaments; assay: Stopped-flow turbidity, dissociation of M200 filaments on NaCl jump or dilution; format: biochemical, human
Procedure: Fig. 9 Dissociation of M200 filaments by S100A4. (a) Initially, M200 was added (i) from a concentrated stock in 0.5 M NaCl to give a final concentration of 5 μM M200 (with respect to the polypeptide chain) in 100 mM NaCl, 10 mM Hepes, and 0.1 mM Ca^2+ at pH 7.5 and 20 °C. A biphasic rise in turbidity was recorded for 200 s (continuous line). Then 10 μM S100A4 (with respect to monomer concentration) was added (ii), followed by 0.2 mM EGTA (iii) and 1 mM Ca^2+ (iv). […] (b) M200 was diluted (i) into 100 mM NaCl to form filaments as in (a), then 5 μM S100A4 was added (ii), causing a 54% drop in turbidity. A further 5 μM S100A4 (iii) caused turbidity to fall to almost zero. (c) Stopped-flow records monitoring the dissociation of 5 μM M200 filaments on jumping [NaCl] from 100 mM to 120 mM NaCl. Other components of the buffer were 20 mM Hepes, 1 mM Mg^2+, and 100 μM Ca^2+ at pH 7.5 and 20 °C. […] In the presence of 20 μM S100A4 (lower trace), the turbidity decreased by 87% with a rate constant of 0.2 s^− 1.
It is of interest to know whether S100A4 drives depolymerisation solely by binding to free M monomer and allowing the polymer equilibrium to readjust (i.e., via k− 4 and k5), or whether S100A4 also binds to the filament bundle and actively depolymerises an M200 unit (via k6 and k− 7). […] In an attempt to address this question, the dissociation rate of the M200 filament was followed on jumping the NaCl concentration from 100 mM to 120 mM in the absence and in the presence of S100A4 (Fig. 9c). Under these conditions in the absence of S100A4, turbidity dropped to about 50% of its initial value with a profile fitted to a double exponential (k1obs = 0.33 s^− 1 with 12% amplitude and k2obs = 0.037 s^− 1 with 43% amplitude, relative to the total amplitude expected for a full dissociation). Therefore, at the end point of this reaction, the filament concentration decreased by about 2-fold (turbidity is proportional to concentration over this range; Fig. S5b). There should also be a corresponding rise in M200 monomer concentration, but this may be less than accounted for by the loss of filaments if the drop in turbidity was also associated with a rise in small M200 oligomers with a lower specific turbidity. […]

[2] = tested on: M200 filamentous bundles; assay: Electron microscopy of myosin IIA tail fragments; design: species or system human
Procedure: Fig. 8 Characterisation of myosin IIA coiled-coil tail fragments. Metal-shadowed electron micrographs of (a) M200 and (b) M111 deposited from 0.5 M ammonium acetate. Scale bar represents 50 nm. (c and d) Electron micrographs of a negatively stained M200 tail fragment. Fields of M200 (c) in the absence and (d) in the presence of a 2-fold molar excess of S100A4, respectively. Arrows point to individual strands emerging from images of filamentous bundles. The samples were prepared in 0.1 M sodium acetate buffer, where M200 formed large filamentous aggregates but were solubilised in the presence of S100A4. Scale bar represents 200 nm (see Materials and Methods for details).
For negative staining, the stock solution of the M200 tail fragment was diluted with a solution consisting of 0.1 M Na-acetate, 3 mM MgCl2, 0.1 mM CaCl2, 10 mM imidazole, and 5 mM NaH2PO4 (pH 7.0), with or without 14 μM S100A4, to give a final concentration of 7 μM M200. Following dilution, 5 μl of the mixture was applied to a grid with a thin carbon film supported by a holey carbon film, and the grid was negatively stained using 1% uranyl acetate. For metal shadowing, the stock solutions of the M200 and M111 tail fragments were diluted with 0.5 M ammonium acetate solution to give a final concentration of 5 μM protein. This was mixed with an equal volume of glycerol, and the resulting mixture was sprayed onto freshly cleaved mica then rotary shadowed with platinum at an angle of 6°.[46] Grids were examined in a Philips CM120 electron microscope (FEI, Hillsboro, OR) operated at 80 kV. Images were recorded on a 2000 × 2000 F224HD slow-scan CCD camera (TVIPS, Gauting, Germany) at a magnification of 65,000× (0.37 nm pixel^− 1). The lengths of nonoverlapping well-shadowed molecules were measured as described by Burgess et al.[47]

B1: M200: His-tagged human NM-MHC IIA residues Q1761-E1960, V1913I substitution (protein, UniProt P35579 1761-1960, looked up, variant V1913I)
chain: QINTDLNLERSHAQKNENARQQLERQNKELKVKLQEMEGTVKSKYKASITALEAKIAQLEEQLDNETKERQAACKQVRRTEKKLKDVLLQVDDERRNAEQYKDQADKASTRLKQLKRQLEEAEEEAQRANASRRKLQRELEDATETADAMNREISSLKNKLRRGDLPFVVPRRMARKGAGDGSDEEVDGKADGAEAKPAE
modifications: His tag
notes: His-tagged human NM-MHC IIA residues Q1761-E1960, V1913I substitution
turbidity change on dilution relative to that with S100A4 ([1]; 2-fold dilution at 100 mM NaCl, no S100A4): 10%
fast rate constant, no S100A4 ([1]; NaCl jump 100 to 120 mM): 0.33 s^− 1
slow rate constant, no S100A4 ([1]; NaCl jump 100 to 120 mM): 0.037 s^− 1
turbidity of initial value after NaCl jump ([1]; NaCl jump, no S100A4): about 50%
filamentous bundle width ([2]; 0.1 M Na-acetate): ~100 nm
individual strand width ([2]; 0.1 M Na-acetate): about 10 nm
mean length of coiled coil ([2]; metal shadowed, 0.5 M ammonium acetate, mean ± SD, n = 132): 26.4 ± 2.03 nm
